# From PMC2680549
# Target: N-terminal domain of Bag2 (Bag2-NTD)
# Assay: SEC
# N-terminal domain of Bag2 (Bag2-NTD) (domain or fragment), sequence (Q91YN9 104-194): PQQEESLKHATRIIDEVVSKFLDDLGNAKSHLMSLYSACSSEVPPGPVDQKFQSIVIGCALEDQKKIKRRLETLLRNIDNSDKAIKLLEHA
substance,measurement,value
N-terminal domain of Bag2 (Bag2-NTD) (domain or fragment),stoichiometry N,2
